Assay results published in patent US20170022269A1.

Columns and labels:
Aβ(1-42) fibrils (human) [1] = target: Aβ(1-42) fibrils (human) (UniProt P05067); test: dot blot densitometry, antibody 0.2 µg/ml; column Aβ(1-42) fibril
Aβ(1-40) monomer (human) = test: dot blot densitometry, antibody 0.2 µg/ml; column Aβ(1-40) monomer, 0.1% NaOH
Aβ(1-42) fibrils (human) [2] = target: Aβ(1-42) fibrils (human) (UniProt P05067); test: co-pelleting with Aβ(1-42) fibrils, SDS-PAGE, optical density of the heavy chain in pellet / (pellet + supernatant)

Aβ(1-42) fibrils (human), sequence (P05067 672-713): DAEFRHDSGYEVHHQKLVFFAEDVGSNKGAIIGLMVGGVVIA
Aβ(1-40) monomer (human), sequence (peptide, as listed by the source): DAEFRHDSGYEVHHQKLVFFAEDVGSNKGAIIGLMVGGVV

- relation between recognition of Aβ(20-42) globulomer and the respective Aβ form (Aβ(1-42) fibrils (human) [1]): > 10000
- relation between recognition of Aβ(20-42) globulomer and the respective Aβ form (Aβ(1-40) monomer (human)): > 10000
- antibody bound to fibrils [%] (Aβ(1-42) fibrils (human) [2]): 5%
B1: monoclonal antibody 3B10 (antibody, part only; not given: light chain, V domains shown, part only)
VH: QVQLQQSGPELVKPGASVKMSCKASGYTFTDYVIHWVKQKPGQGLEWIGYINPYNDGTQYNEKFKGKATLTSDKSSSTVYMELSSLTSEDSTVYYCTVEGGTWDGYFDVWGTGTTVTVSS
